Source: article PMC8481097

Tests used:
Experiment in all cases: fluorescence polarisation
[1] = molecular target: TAMRA-labeled SARS-CoV-2 nsp1 R124A/K125A (SARS-CoV-2) (UniProt P0DTD1)
[2] = molecular target: TAMRA-labeled SARS-CoV-2 nsp1 C-K (wild type) (SARS-CoV-2) (UniProt P0DTD1)
[3] = molecular target: TAMRA-labeled SARS-CoV-2 nsp1 R99A (SARS-CoV-2) (UniProt P0DTD1)

## purified ribosomes (crude 80S from HeLa cell lysate) (complex)
[1]
  fold increase in KD against WT nsp1: 2.2 fold
[2]
  Kd: 29.4 nM
[3]
  fold increase in KD against WT nsp1: 1.8 fold
